Target: the molecule itself
Test: crystal structure; MicroED (electron diffraction in a cryo electron microscope, 200 kV) from 3D peptide crystals only a few hundred nanometers thick; self-association of the peptide in the crystal

B1: hIAPP segment 19–29 S20G (19-SGNNFGAILSS-29) (peptide)
peptide: SGNNFGAILSS
notes: human islet amyloid polypeptide (hIAPP), residues 19-29, with the early onset familial mutation S20G; numbers count on: the mature protein (37-residue hormone); Forms 3D nanocrystals and fibrils; the number of chains in the assembly is open-ended; also called spine segment 19–29 S20G; source: synthetic peptide: GenScript, greater than 98% purity
Does B1 bind?
Result: binds

B2: hIAPP segment 15–25 WT (15-FLVHSSNNFGA-25) (peptide)
peptide: FLVHSSNNFGA
notes: human islet amyloid polypeptide (hIAPP), residues 15-25, wild type; numbers count on: the mature protein (37-residue hormone); Forms 3D nanocrystals and fibrils (striated ribbons); also called spine segment 15–25 WT; source: synthetic peptide: GenScript, greater than 98% purity
Does B2 bind?
Result: binds
